{
  "source": "patent US20250051435A1",
  "about": "(INVETX, published 2025)",
  "binders": {"B1": {"name": "1H3-C6 Fab (MtxB HCDR3 variant) (Fab, V domains shown)", "VH": "DVQLVESGGDLVKPGGSLRLTCVGSGFTFSNYAMSWVRQAPGEGLQWVATIGSGGHYTYHPDSVKGRFTISRDNAKNTLYLQMNSLQTEDTASYYCTRETDGYGPMDVWGQGTLVTVSS", "VL": "DIVMTQTPLSLSVTPGEPASISCRASQSISDYLYWYLQKPGQSPRRLIYYASQSISGVPDRFSGSGSGTDFTLRISRVEADDVGVYYCQNGHSFPYTFGPGTKLEIK", "notes": "Fab from the MtxB HCDR3 library; the entry named is the parent, the changed CDR is told under detail"}, "B2": {"name": "MtxB Fab (Fab, V domains shown)", "VH": "B1 VH with G104D, P105G, V108Y", "VL": "B1 VL", "notes": "Fab made in E. coli from the phagemid: heavy chain variable domain, CH1 and partial hinge; light chain of MtxB; also called Matrix B; original MtxB Fab"}, "B3": {"name": "1L2-E7 Fab (MtxB LCDR2 variant) (Fab, V domains shown)", "VH": "B1 VH with G104D, P105G, V108Y", "VL": "B1 VL with L47I, I48F, Y49F, Y50A, A51S, Q53L, S54Y, I55D", "notes": "Fab from the MtxB LCDR2 library; the entry named is the parent, the changed CDR is told under detail"}, "B4": {"name": "1L2-D1 Fab (MtxB LCDR2 variant) (Fab, V domains shown)", "VH": "B1 VH with G104D, P105G, V108Y", "VL": "B1 VL with L47I, I48F, Y49F, Y50T, A51E, S54R, I55A", "notes": "as for B3"}, "B5": {"name": "2L2-G12 Fab (MtxB LCDR2 variant) (Fab, V domains shown)", "VH": "B1 VH with G104D, P105G, V108Y", "VL": "B1 VL with L47V, I48F, Y49F, Y50T, A51P, Q53D, I55A", "notes": "Fab from the MtxB LCDR2 library"}, "B6": {"name": "1L2-D12 Fab (MtxB LCDR2 variant) (Fab, V domains shown)", "VH": "B1 VH with G104D, P105G, V108Y", "VL": "B1 VL with L47I, I48F, Y49F, Y50G, A51Y, Q53G, S54T, I55K", "notes": "as for B3"}, "B7": {"name": "1L2-H7 Fab (MtxB LCDR2 variant) (Fab, V domains shown)", "VH": "B1 VH with G104D, P105G, V108Y", "VL": "B1 VL with L47V, I48F, Y49F, Y50T, A51V, Q53G, S54G, I55V", "notes": "as for B3"}, "B8": {"name": "1L2a-H2 Fab (MtxB LCDR2 variant) (Fab, V domains shown)", "VH": "B1 VH with G104D, P105G, V108Y", "VL": "B1 VL with L47V, I48F, Y50T, A51D, Q53A, S54E, I55V", "notes": "as for B3"}, "B9": {"name": "LxH3-F12 Fab (affinity matured MtxB) (Fab, V domains shown)", "VH": "B1 VH with M106L, V108L", "VL": "DIVMTQTPLSLSVTPGEPASISCRASQSISDYLYWYLQKPGQSPRLIFNPLSVRRSGVPDRFSGSGSGTDFTLRISRVEADDVGVYYCQQGYVFPYTFGPGTKLEIKR", "notes": "Fab from the Stage B library on MtxB; the entries named are the parent, the changed regions are told under detail"}, "B10": {"name": "LxH3-G7 Fab (affinity matured MtxB) (Fab, V domains shown)", "VH": "B1 VH with M106I, D107L, V108D", "VL": "B9 VL with I47V, P50H, L51A, V53P, R54V, R55P, Y92I, V93R", "notes": "as for B9"}, "B11": {"name": "LxH3-G4 Fab (affinity matured MtxB) (Fab, V domains shown)", "VH": "B1 VH with V108L", "VL": "DIVMTQTPLSLSVTPGEPASISCRASQSISDYLYWYLQKPGQSPRRLIYFGSLLSSGVPDRFSGSGSGTDFTLRISRVEADDVGVYYCQQGLLFPYTFGPGTKLEIKR", "notes": "as for B9"}, "B12": {"name": "LxH3-F4 Fab (affinity matured MtxB) (Fab, V domains shown)", "VH": "B1 VH with D107L, V108D", "VL": "B9 VL with I47L, P50Y, L51G, R54L, R55A, V93L", "notes": "as for B9"}, "B13": {"name": "LxH3-F5 Fab (affinity matured MtxB) (Fab, V domains shown)", "VH": "B1 VH with M106L, V108L", "VL": "B9 VL with F48I, L51M, V53G, R54Q, R55L, Y92L, V93L", "notes": "as for B9"}, "B14": {"name": "LxH3-E2 Fab (affinity matured MtxB) (Fab, V domains shown)", "VH": "B1 VH with M106I, D107L, V108D", "VL": "B9 VL with L46R, P50H, V53P, R54S, R55S, Y92S", "notes": "as for B9"}, "B15": {"name": "LxH3-F11 Fab (affinity matured MtxB) (Fab, V domains shown)", "VH": "B1 VH with M106I, D107L, V108D", "VL": "B9 VL with L46R, I47V, N49F, P50H, L51S, V53Y, R55Q, Y92M, V93L, Y96F", "notes": "as for B9"}, "B16": {"name": "LxH3-G2 Fab (affinity matured MtxB) (Fab, V domains shown)", "VH": "B1 VH with M106L, V108L", "VL": "B9 VL with I47V, F48I, P50W, L51G, V53Q, R55A, Y92A, V93I", "notes": "as for B9"}, "B17": {"name": "LxH3-E8 Fab (affinity matured MtxB) (Fab, V domains shown)", "VH": "B1 VH with M106I, D107L, V108D", "VL": "B9 VL with F48I, P50Q, L51A, V53S, R54K, R55L, Y92P, V93L", "notes": "as for B9"}, "B18": {"name": "LxH3-G10 Fab (affinity matured MtxB) (Fab, V domains shown)", "VH": "B1 VH with M106I, D107L, V108D", "VL": "B11 VL with L47I, Y49F, F50T, L53Q, L54R, S55N, L92A, L93F", "notes": "as for B9"}, "B19": {"name": "MtxB N106S (LCDR3) variant (antibody, V domains shown)", "VH": "B1 VH with G104D, P105G, V108Y", "VL": "B1 VL with N90S", "notes": "Feline IgG with feline kappa constant domain"}, "B20": {"name": "MtxB N106Q (LCDR3) variant (antibody, V domains shown)", "VH": "B1 VH with G104D, P105G, V108Y", "VL": "B1 VL with N90Q", "notes": "as for B19"}},
  "note": "Numbering of substitutions follows the chain as printed. Names may count otherwise.",
  "data": [
    {"biological_target": "T1, feline IL-5 (Kingfisher Biotech; RP1152F) (feline, UniProt O77515 20-134)", "T1 construct": "Bought recombinant protein; also called fIL-5; fIL5", "T1 sequence (looked up)": "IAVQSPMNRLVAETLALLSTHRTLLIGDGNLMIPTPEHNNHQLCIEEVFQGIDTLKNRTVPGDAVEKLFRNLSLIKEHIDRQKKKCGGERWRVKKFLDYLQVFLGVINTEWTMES", "experiment": "ELISA on plate-coated feline IL-5, Fab at 65 ng/ml dimerized with goat anti-feline IgG F(ab')2, anti-goat-HRP detection", "values": [
      {"binder": "B1", "Normalized fIL-5 ELISA value, 65 ng/ml Fab": 0.967},
      {"binder": "B2", "Normalized fIL-5 ELISA value, 65 ng/ml Fab": 0.165},
      {"binder": "B3", "Normalized fIL-5 ELISA value, 65 ng/ml Fab": 0.366},
      {"binder": "B4", "Normalized fIL-5 ELISA value, 65 ng/ml Fab": 0.492},
      {"binder": "B5", "Normalized fIL-5 ELISA value, 65 ng/ml Fab": 0.251},
      {"binder": "B6", "Normalized fIL-5 ELISA value, 65 ng/ml Fab": 0.303},
      {"binder": "B7", "Normalized fIL-5 ELISA value, 65 ng/ml Fab": 0.283},
      {"binder": "B8", "Normalized fIL-5 ELISA value, 65 ng/ml Fab": 0.559}
    ]},
    {"biological_target": "T1, feline IL-5 (Kingfisher Biotech; …)", "experiment": "ELISA, Fab culture supernatant on plate-coated feline IL-5, anti-feline Fab'2-HRP detection", "description": "Fragments containing the pre-selected CDR pools from these libraries were randomly paired by overlap PCR to create a new library incorporating mutations throughout all targeted CDRs. The phage propagated following round 4 of selection were used for PCR amplication of LCDR2, LCDR3 and HCDR3. The PCR-amplified fragment containing the light chain and the heavy chain were ligated into a phagemid vector and transformed into E. coli. The number of transformants was approximately 2E+10. Library plasmid DNA was purified using a midi-prep purification method. Ten pg of the library plasmid DNA was transformed into E. coli for growth and propagation of the Fab phage. After overnight phage production, phage was precipitated from the culture supernatant and resuspended in blocking buffer (1% BSA/PBS). The phage were treated at 58° C. for 10 minutes to remove unstable clones prior to the selections. The input phage was incubated for 30 minutes in a blocked ELISA plate coated with feline IL-5. The ELISA plate was washed with PBS, pH 7.4 followed by acid elution of the bound phage. The output phage was then used to infect E. coli for propagation for the next round of selection. For rounds 1, 2, 3 and 4, the ELISA plates were coated with 10 μg/ml, 8 μg/ml, 5 μg/ml and 1 μg/ml, respectively. The number of washes after each round were 3, 5, 10 and 10 for rounds 1, 2, 3 and 4, respectively. Ninety-three clones from the round 4 output were grown overnight for Fab production and tested for binding to feline IL-5 in an ELISA format. For this assay, supernatants from the overnight cultures were incubated in Immulon 4 HBX high-binding plate that was coated with 10 μg/ml feline IL-5 (Kingfisher Biotech; Cat #RP1152F) and blocked with 1% bovine serum albumin in phosphate buffered saline (PBS), pH 7.4. The controls added included the MtxB clone and clone 1H3-C6 which was the top affinity clone from the first stage A1 step. The Fab binding to the feline IL-5 was detected with anti-feline Fab′₂-HRP conjugate.\nThe results are shown in Table 8A which compares relative Fab binding affinity to feline IL-5 by Fabs disclosed herein. IL-5 binding was detected with anti-feline Fab′₂-HRP conjugate. Differences in CDR amino acids compared to the MtxB are underlined. The data in the last column are absorbance following addition of substrate to detect the HRP conjugate.", "units": {"fIL5 Fab (ELISA absorbance)": "absorbance"}, "values": [
      {"binder": "B1", "fIL5 Fab (ELISA absorbance)": 0.1},
      {"binder": "B2", "fIL5 Fab (ELISA absorbance)": 0.054},
      {"binder": "B9", "fIL5 Fab (ELISA absorbance)": 0.513},
      {"binder": "B10", "fIL5 Fab (ELISA absorbance)": 0.672},
      {"binder": "B11", "fIL5 Fab (ELISA absorbance)": 0.545},
      {"binder": "B12", "fIL5 Fab (ELISA absorbance)": 0.738},
      {"binder": "B13", "fIL5 Fab (ELISA absorbance)": 1.04},
      {"binder": "B14", "fIL5 Fab (ELISA absorbance)": 0.809},
      {"binder": "B15", "fIL5 Fab (ELISA absorbance)": 0.782},
      {"binder": "B16", "fIL5 Fab (ELISA absorbance)": 0.653},
      {"binder": "B17", "fIL5 Fab (ELISA absorbance)": 0.748},
      {"binder": "B18", "fIL5 Fab (ELISA absorbance)": 0.877}
    ]},
    {"biological_target": "T1, feline IL-5 (Kingfisher Biotech; …)", "experiment": "SPR Biacore T200, IgG captured on goat anti-feline IgG CM5 chip, feline IL-5 as analyte", "description": "Asparagine deamidation for asparagine residues and oxidation at methionine residues can negatively impact the potency and the stability of an antibody (Xu et al., 2019. MABS, 11:239-264). These post-translational modifications can be particularly problematic when they reside in the CDRs. […] DNA constructs were synthesized (GeneArt) encoding the MtxB clone with substitutions to eliminate the potential sequence liabilities. For the NG site in LCDR3, the Asn (position 106) was substituted with either a Gln or a Ser and for the Met in HCDR3 (position 115), a Len was substituted. The DNA constructs with the light chain variants were fused to the feline kappa constant domain. These DNA constructs were subcloned into the pcDNA3.4 expression vector (ThermoFisher) and expressed with the ExpiCHO system (ThermoFisher). The antibodies were purified with mAbSelect SuRe chromatography (Cytiva) and buffer exchanged into 20 mM sodium acetate, 136 mM sodium chloride, pH 5.5. The variants were tested in an SPR experiment using a Biacore T200 instrument to measure their affinity to feline IL-5 (Kingfisher Biotech; RP1152F). Goat anti-feline IgG was immobilized onto a Series S CM5 sensor chip (Cytiva) and the original MtxB clone and the variants containing the amino acid substitutions were captured on the chip at 5 μg/ml.", "units": {"Kd": "nM", "koff": "s⁻¹", "kon": "M⁻¹ s⁻¹"}, "values": [
      {"binder": "B19", "Kd": 3.6, "koff": 0.00027, "kon": 75000},
      {"binder": "B20", "Kd": 0.56, "koff": "8.6e-05", "kon": 150000}
    ]}
  ]
}
